The target of the data set is NFIA full-length (human, UniProt Q12857 1-509). Nature of the data set: BLI.

This note sets out measurements from publication PMC12830966.

Sequence of NFIA full-length (Q12857 whole entry): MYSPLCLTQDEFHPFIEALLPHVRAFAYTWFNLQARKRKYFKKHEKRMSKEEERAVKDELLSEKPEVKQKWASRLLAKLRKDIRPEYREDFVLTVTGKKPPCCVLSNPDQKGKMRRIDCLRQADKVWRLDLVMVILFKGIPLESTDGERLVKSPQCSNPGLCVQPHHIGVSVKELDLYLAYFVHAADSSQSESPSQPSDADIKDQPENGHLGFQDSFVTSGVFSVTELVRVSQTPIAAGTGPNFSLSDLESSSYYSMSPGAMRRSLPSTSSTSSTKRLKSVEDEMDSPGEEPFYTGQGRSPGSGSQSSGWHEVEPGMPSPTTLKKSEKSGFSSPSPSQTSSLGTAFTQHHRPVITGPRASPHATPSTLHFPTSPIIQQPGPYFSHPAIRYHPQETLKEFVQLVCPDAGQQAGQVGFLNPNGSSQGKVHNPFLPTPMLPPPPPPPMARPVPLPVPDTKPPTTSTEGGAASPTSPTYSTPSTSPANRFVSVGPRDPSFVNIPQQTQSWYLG

B1: DNA-S (dsDNA)
DNA 1: AGTTGGCAAGTC
DNA 2: GACTTGCCAACT
For B1, binding was characterised by a dissociation constant (Kd) of 20.4 nM. That is a double-digit nanomolar value.
